According to US20200102387A1 (CELGENE, published 2020):
Where a chain is given by its changes, count along the chain named. Names may count otherwise. Like-named read-outs stand apart in the source and are kept apart here.

Assays:
mouse SIRPα on cells = target: T1, mouse SIRPα on cells (mouse, UniProt P97797 32-513); experiment: flow cytometry on Mouse SIRPα-CHO-K1 cells
T1 construct: whole, on cells; also called mouse SIRPα-CHO-K1; Ms SIRPα-CHO-K1
T1 sequence (looked up): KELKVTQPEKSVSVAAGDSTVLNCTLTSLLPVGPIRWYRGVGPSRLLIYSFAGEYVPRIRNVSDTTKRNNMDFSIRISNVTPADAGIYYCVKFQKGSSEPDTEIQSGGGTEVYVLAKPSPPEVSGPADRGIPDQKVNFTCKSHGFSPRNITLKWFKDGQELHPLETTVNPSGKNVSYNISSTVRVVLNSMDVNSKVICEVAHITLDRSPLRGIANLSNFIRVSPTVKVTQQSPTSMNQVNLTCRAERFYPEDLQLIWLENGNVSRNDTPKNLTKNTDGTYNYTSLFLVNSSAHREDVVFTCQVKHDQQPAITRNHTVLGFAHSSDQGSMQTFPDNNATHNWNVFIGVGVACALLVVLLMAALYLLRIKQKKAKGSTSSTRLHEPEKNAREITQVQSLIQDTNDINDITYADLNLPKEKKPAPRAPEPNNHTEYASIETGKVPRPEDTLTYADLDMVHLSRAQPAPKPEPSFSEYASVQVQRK

FcγR2B [1] = target: T2, FcγR2B (human, UniProt P31994 43-310); experiment: cell binding, FcγR-engineered HEK293 cells
T2 construct: whole, on cells
T2 sequence (looked up): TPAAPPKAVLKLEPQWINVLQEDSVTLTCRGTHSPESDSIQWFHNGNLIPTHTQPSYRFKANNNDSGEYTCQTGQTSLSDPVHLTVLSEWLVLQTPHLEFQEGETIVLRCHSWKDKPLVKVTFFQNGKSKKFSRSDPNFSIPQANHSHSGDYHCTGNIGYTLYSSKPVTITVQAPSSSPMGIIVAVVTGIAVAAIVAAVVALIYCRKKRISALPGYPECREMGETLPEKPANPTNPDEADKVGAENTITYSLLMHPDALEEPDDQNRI

FcγR1 (CD64) [2] = target: T3, FcγR1 (CD64) (human, UniProt P12314 16-374); experiment: cell binding, FcγR-engineered HEK293 cells
T3 construct: whole, on cells
T3 sequence (P12314 16-374): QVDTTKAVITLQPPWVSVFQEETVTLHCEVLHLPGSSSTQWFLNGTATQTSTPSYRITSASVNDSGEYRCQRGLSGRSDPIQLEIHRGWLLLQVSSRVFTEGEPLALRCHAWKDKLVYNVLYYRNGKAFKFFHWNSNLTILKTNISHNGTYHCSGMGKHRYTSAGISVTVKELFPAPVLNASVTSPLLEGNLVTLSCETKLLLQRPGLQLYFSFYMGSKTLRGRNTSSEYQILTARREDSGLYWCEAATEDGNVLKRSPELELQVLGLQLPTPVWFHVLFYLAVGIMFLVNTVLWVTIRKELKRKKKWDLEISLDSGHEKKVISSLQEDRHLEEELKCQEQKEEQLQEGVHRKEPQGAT

FcγR3A (CD16aV158) [3] = target: T4, FcγR3A (CD16aV158) (human, UniProt P08637 17-254); experiment: cell binding, FcγR-engineered HEK293 cells
T4 construct: whole, on cells
T4 sequence (P08637 17-254 F176V): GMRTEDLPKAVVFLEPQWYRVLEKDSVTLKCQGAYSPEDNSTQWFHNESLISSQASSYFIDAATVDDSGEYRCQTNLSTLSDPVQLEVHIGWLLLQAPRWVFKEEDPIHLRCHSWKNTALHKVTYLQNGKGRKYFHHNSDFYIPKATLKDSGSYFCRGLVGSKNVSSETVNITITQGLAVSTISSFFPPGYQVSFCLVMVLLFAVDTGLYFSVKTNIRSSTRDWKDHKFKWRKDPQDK

FcγR2A (CD32aR131) = target: T5, FcγR2A (CD32aR131) (human, UniProt P12318 34-317); experiment: cell binding, FcγR-engineered HEK293 cells
T5 construct: whole, on cells
T5 sequence (looked up): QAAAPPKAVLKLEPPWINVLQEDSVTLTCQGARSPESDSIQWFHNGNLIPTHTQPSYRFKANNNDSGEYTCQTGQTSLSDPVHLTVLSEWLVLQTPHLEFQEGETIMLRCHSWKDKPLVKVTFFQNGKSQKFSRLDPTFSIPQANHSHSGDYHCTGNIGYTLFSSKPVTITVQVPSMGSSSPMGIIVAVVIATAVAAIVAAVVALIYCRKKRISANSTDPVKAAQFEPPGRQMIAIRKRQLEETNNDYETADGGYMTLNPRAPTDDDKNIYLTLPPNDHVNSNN

FcγR2A (CD32aH131) = target: T6, FcγR2A (CD32aH131) (human, UniProt P12318 34-317); experiment: cell binding, FcγR-engineered HEK293 cells
T6 construct: whole, on cells
T6 sequence (looked up): T5 sequence (looked up) with R134H

FcγR2B [4] = target: T2, FcγR2B; experiment: cell binding, FcγR-engineered HEK293 cells; remark: listed apart in the source
FcγR1 (CD64) [5] = target: T3, FcγR1 (CD64); experiment: cell binding, FcγR-engineered HEK293 cells; remark: listed apart in the source
FcγR3A (CD16aF158) = target: T7, FcγR3A (CD16aF158) (human, UniProt P08637 17-254); experiment: cell binding, FcγR-engineered HEK293 cells
T7 construct: whole, on cells
T7 sequence (P08637 17-254): as the sequence (P08637 17-254 F176V) above, with V160F counted along it

FcγR3A (CD16aV158) [6] = target: T4, FcγR3A (CD16aV158); experiment: cell binding, FcγR-engineered HEK293 cells; remark: listed apart in the source
human SIRPα on cells = human SIRPα on cells (human, UniProt P78324 31-504); experiment: cell-based or functional assay

B1: SIRPAB-11-K322A (antibody, human IgG1, kappa)
light: DIQMTQSPSSVSASVGDRVTITCRASQGISSWLAWYQQKPGKAPKLLIYAASNLQSGVPSRFSGSGSGTDFTLTISSLQPEDFATYYCQQGASFPITFGGGTKVEIKRTVAAPSVFIFPPSDEQLKSGTASVVCLLNNFYPREAKVQWKVDNALQSGNSQESVTEQDSKDSTYSLSSTLTLSKADYEKHKVYACEVTHQGLSSPVTKSFNRGEC
heavy: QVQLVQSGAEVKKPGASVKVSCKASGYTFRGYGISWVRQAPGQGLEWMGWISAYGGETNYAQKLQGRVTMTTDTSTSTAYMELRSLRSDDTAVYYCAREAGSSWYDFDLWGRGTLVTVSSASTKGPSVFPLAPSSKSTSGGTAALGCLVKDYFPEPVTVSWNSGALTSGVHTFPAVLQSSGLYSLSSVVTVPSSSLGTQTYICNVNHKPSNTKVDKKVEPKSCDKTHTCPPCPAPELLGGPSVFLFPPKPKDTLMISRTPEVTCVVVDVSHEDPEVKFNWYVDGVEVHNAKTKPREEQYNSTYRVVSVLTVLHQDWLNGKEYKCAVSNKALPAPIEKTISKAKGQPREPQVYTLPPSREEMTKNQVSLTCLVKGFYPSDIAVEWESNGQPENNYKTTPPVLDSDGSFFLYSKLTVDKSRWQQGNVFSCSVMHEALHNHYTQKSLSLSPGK
notes: human IgG1 with K322A (EU numbering); also called SIRPAB-11-IgG1-K322A; SIRPAB-11-K322A-AlexaFluor647
Mouse SIRPα on cells
  binding result: no binding (tested: 100 nM (Log nM 2))
FcγR2B [1]
  EC50: 2.71 µM
FcγR1 (CD64) [2]
  EC50: 0.00079 µM
FcγR3A (CD16aV158) [3]
  EC50: 0.142 µM
FcγR2A (CD32aR131)
  EC50: 0.194 µM
FcγR2A (CD32aH131)
  EC50: 0.2 µM
FcγR2B [4]
  EC50: 2.48 µM
FcγR1 (CD64) [5]
  EC50: 0.00079 µM
FcγR3A (CD16aF158)
  EC50: 1.2 µM
FcγR3A (CD16aV158) [6]
  EC50: 0.795 µM
Human SIRPα on cells
  mean EC50 (n=2 donors) of percent phagocytic macrophages; OCI-LY3; with 0.1 nM rituximab: 0.00011 µM
